Reference: paper PMC6981200

Target: streptavidin-binding peptide-tagged constitutively active form of TAZ (SBP-TAZ4SA) (human) (UniProt Q9GZV5)
Chain of UniProt Q9GZV5 (Q9GZV5 whole entry): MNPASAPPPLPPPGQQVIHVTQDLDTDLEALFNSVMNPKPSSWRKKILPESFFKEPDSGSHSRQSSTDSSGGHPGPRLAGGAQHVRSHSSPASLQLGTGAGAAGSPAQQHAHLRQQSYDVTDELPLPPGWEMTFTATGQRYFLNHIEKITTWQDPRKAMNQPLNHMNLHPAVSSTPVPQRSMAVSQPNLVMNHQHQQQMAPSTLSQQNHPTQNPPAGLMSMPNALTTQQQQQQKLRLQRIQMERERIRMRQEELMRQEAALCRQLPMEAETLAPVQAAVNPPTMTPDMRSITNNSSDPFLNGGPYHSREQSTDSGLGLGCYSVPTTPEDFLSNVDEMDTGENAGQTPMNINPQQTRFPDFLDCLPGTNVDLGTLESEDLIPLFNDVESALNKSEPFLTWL

Flag-p52 (from UniProt Q9WTK5 1-454) (natural protein)
Ccl19 promoter-driven luciferase activity in HEK293T cells co-transfected with TAZ4SA and p52 (p52 alone: 7.5-fold): 13.5 fold
